# In patent US20200247886A1 (ZLIP, published 2020):
# Substitutions are numbered along the chain they refer to.
# T1: CHO/mCD47-GFP (mouse, UniProt Q61735)
# T1 construct: on the cell surface; also called mouse CD47 expressed on CHO cells; CHO cell expressing mouse CD47
# T1 sequence (receptor, looked up): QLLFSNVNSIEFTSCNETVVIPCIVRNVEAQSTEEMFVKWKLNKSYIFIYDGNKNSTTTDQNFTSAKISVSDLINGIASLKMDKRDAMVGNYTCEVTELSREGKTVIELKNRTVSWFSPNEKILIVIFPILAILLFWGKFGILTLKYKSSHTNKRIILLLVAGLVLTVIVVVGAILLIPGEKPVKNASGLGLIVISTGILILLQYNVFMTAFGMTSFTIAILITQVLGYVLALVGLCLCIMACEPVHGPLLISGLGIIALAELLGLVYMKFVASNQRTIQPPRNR
# B1: C-ABU4 (antibody, human IgG4 S228P, kappa, V domains shown)
# VH: QVQLQQSGPQLVRPGASVKISCKTSGYSFTNYWMQWVKQRPGQGLEWIGMIDPSDSESRLNQKFKDKATLTVDKSSSTAYMQLSSPTFEDSAVYYCARRGSPMITSFAYWGQGTLVTVSA
# VL: DVQITQSPSFLAASPGETITINCRASKNIGKYLAWFQEKPGKTNKLLIYSGSTLQSGIPSRFSGSGSGTDFTLTISSLEPEDFAIYYCQQHNEYPYTFGGGTKLEIKR
# notes: Human chimeric IgG4 antibody
# B2: H-ABU44 (antibody, V domains shown)
# VH: QVQLVQSGAEVKKPGASVKVSCKASGYSFTNYHIHWVRQAPGQRLEWIGWIYPGSGNTKYNEKFKGRATLTADTSASTAYMELSSLRSEDTAVYYCARYDYDLYLHSWGQGTLVTVSS
# VL: DIQITQSPSSVSASVGDRVTITCHASQNINVWLSWYQQKPGKAPKLLIYKASNLHTGVPSRFSGSGSGTGFTLTISSLQPEDFATYYCQQGQSYPLTFGQGTKLEIK
# B3: Positive 3-IgG4-P (antibody)
# heavy chain: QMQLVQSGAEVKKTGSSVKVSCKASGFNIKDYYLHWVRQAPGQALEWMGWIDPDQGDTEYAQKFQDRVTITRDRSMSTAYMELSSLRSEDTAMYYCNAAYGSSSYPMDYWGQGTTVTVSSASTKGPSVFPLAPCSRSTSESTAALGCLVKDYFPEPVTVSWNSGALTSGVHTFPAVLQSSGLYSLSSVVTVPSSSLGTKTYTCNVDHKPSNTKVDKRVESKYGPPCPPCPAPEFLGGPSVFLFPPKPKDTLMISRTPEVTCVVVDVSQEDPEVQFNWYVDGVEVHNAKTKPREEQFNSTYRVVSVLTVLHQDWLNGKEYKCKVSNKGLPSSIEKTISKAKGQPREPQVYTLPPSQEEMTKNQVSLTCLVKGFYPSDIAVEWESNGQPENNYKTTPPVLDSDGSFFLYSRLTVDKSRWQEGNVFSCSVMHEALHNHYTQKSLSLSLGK
# light chain: QMTQSPSAMSASVGDRVTITCKASQDIHRYLSWFQQKPGKVPKHLIYRANRLVSGVPSRFSGSGSGTEFTLTISSLQPEDFATYYCLQYDEFPYTFGGGTKVEIKRTVAAPSVFIFPPSDEQLKSGTASVVCLLNNFYPREAKVQWKVDNALQSGNSQESVTEQDSKDSTYSLSSTLTLSKADYEKHKVYACEVTHQGLSSPVTKSFNRGEC
# B4: Positive 3-IgG4-PE (antibody)
# heavy chain: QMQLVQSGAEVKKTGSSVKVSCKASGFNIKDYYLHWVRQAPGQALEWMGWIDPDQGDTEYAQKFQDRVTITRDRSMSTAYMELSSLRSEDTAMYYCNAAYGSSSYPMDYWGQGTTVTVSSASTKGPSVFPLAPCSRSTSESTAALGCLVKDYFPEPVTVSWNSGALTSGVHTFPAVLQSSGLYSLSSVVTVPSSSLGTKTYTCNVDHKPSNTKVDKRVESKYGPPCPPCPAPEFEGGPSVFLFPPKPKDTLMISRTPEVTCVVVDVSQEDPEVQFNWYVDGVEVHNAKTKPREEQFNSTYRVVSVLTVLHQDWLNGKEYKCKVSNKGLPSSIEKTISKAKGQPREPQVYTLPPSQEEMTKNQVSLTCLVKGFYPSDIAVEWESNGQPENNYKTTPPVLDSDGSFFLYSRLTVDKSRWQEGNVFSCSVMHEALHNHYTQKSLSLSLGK
# light chain: B3 light chain
# B5: ABU16 (IgG) (antibody, V domains shown)
# VH: RVQLQQSGAELVRPGTSVKVSCKASAYAFTNYLIEWVKKRPGQGLEWIGVINPGSGGTNYNEKFKGKATLTADKSSSTAYMQLSSLTSEDSAVYFCARGDGYGSLFAYWGQGTLVTVSA
# VL: RHCFNQSPAIMSASPGEKVTMTCSASSSVSYMHWYQQKSGTSPKRWIYDTSNLASGVPVRFSGSGSGTSYSLTISRMEAEDAATYYCQQWSNYPFTFGSGTKLELK
# B6: ABU7 (antibody, V domains shown)
# VH: EVQLQQSGPELVKPGASVKISCKASGYSFTGYYMNWVKQSPEKSLEWIGEINPSTGGTTYNQKFKAKATLTVDKSSSTAYMQLKSLTFEDSAVYYCAIYDGYEGFAYWGQGTLVTVSA
# VL: DIKMTQSPSSMYASLGERVTITCKASQDIKSYLSWYQQKPWKSPKTLIYYATSLADGVPSRFSGSGSGQHYSLTISSLESDDTATYYCLQHGESPFTFGSGTKLEIK
# notes: Murine hybridoma monoclonal antibody
# B7: H-ABU2b (antibody, V domains shown)
# VH: QVQLVQSGAEVKKPGASVKVSCKASGYTFTDFYINWVRQAPGQRLEWMGWIYLGSGNTKYNEKFKGRVTITVDTSASTAYMELSSLRSEDTAVYYCARREERGFAYWGQGTLVTVSS
# VL: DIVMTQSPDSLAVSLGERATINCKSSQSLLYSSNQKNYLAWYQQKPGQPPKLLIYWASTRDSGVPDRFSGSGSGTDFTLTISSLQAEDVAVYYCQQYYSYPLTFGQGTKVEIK
# B8: H-ABU 6 (antibody, V domains shown)
# VH: B7 VH with V72R
# VL: DIVMTQSPDSLAVSLGERATINCKSSQSLLSSNQKNYLAWYQQKPGQPPKLLIYWASVRDSGVPDRFSGSGSGTDFTLTISSLQAEDVAVYYCQQFYSYPLTFGQGTKVEIK
# B9: H-ABU 7 (antibody, V domains shown)
# VH: B7 VH with F32H, V72R, E101D
# VL: B8 VL with N33S, F96Y
# B10: H-ABU 4 (antibody, V domains shown)
# VH: B7 VH with F32I, T58V, V72R, E101D
# VL: B8 VL with N36Y, V58T
# B11: H-ABU10-IgG4-P (antibody)
# light chain: B8 VL with L30V, N33S, F96Y
# heavy chain: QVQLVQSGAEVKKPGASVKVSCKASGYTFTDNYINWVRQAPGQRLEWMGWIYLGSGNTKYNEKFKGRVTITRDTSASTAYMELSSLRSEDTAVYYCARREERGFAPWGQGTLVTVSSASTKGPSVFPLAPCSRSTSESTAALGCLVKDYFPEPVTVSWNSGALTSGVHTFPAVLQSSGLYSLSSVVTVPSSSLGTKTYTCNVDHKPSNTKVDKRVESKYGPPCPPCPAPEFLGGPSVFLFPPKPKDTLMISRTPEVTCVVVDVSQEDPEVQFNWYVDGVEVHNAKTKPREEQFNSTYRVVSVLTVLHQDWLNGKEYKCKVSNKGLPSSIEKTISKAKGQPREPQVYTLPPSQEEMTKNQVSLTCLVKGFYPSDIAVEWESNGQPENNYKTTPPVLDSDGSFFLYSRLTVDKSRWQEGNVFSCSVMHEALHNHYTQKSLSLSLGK
# B12: H-ABU10-IgG4-PE (antibody)
# light chain: B8 VL with L30V, N33S, F96Y
# heavy chain: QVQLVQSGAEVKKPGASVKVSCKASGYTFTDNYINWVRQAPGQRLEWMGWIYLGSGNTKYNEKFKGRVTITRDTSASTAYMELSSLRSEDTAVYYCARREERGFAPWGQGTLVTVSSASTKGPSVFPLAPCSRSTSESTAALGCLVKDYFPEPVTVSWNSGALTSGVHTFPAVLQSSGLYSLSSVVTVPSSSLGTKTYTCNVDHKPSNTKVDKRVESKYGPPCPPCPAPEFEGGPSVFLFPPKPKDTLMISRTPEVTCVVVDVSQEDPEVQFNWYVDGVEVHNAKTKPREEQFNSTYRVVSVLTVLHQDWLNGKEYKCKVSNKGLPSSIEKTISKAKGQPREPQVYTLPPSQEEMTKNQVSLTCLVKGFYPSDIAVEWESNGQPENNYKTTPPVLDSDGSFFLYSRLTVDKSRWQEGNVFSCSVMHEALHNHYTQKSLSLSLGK
# B13: H-ABU 39 (antibody, V domains shown)
# VH: QVQLVQSGAEVKKPGASVKVSCKTSGYSFTNYWMQWVRQAPGQGLEWIGMIDPSDSESRLNQKFKDRATLTVDTSTSTAYMELSSLRSEDTAVYYCARRGSPMITSFAYWGQGTLVTVSS
# VL: DVQITQSPSSLSASVGDRVTITCRASKNIGKYLAWFQQKPGKTNKLLIYSGSTLQSGIPSRFSGSGSGTDFTLTISSLQPEDFATYYCQQHNEYPYTFGGGTKVEIK
# notes: Humanized antibody
# B14: H-ABU 41 (antibody, V domains shown)
# VL: B13 VL
# VH: B13 VH with V5Q, R67K, T74K
# notes: Humanized antibody
# B15: H-ABU 38 (antibody, V domains shown)
# VH: B13 VH with T24A, S28T, A79V
# VL: B13 VL
# notes: Humanized antibody
# B16: H-ABU 43 (antibody, V domains shown)
# VH: B13 VH with I48M, A68V, L70M, V72R
# VL: B13 VL
# notes: Humanized antibody
# B17: H-ABU 37 (antibody, V domains shown)
# VH: B13 VH with T24A, S28T, I48M, A68V, L70M, V72R, A79V
# VL: B13 VL
# notes: Humanized antibody
# Experiments:
# [1] = target: T2, human CD47 expressed on cells (CD47 expressing CHO cells, Jurkat, HL60, DLD1, Raji) (human, UniProt Q08722 19-292); assay: flow cytometry on CD47 expressing CHO cells, MFI (FL-4)
# T2 construct: also called CHO-CD47; IAP
# [2] = target: T2, human CD47 expressed on cells (CD47 …); assay: flow cytometry on human platelets, donor 1, MFI
# [3] = target: T2, human CD47 expressed on cells (CD47 …); assay: flow cytometry on human platelets, donor 2, MFI
# [4] = target: T2, human CD47 expressed on cells (CD47 …); assay: flow cytometry on human red blood cells, donor 1, MFI
# [5] = target: T2, human CD47 expressed on cells (CD47 …); assay: flow cytometry on human red blood cells, donor 2, MFI
# [6] = target: T2, human CD47 expressed on cells (CD47 …); assay: flow cytometry on human platelets, MFI
# [7] = target: T2, human CD47 expressed on cells (CD47 …); assay: flow cytometry on human red blood cells, MFI
# CD47 on monkey RBC = target: T3, CD47 on monkey RBC (Macaca fascicularis, UniProt A0A2K5X523); assay: flow cytometry on cynomolgus monkey red blood cells expressing CD47, MFI
# T3 construct: native, on red blood cells; also called cynomolgus monkey red blood cells expressing CD47
# [8] = target: T2, human CD47 expressed on cells (CD47 …); assay: flow cytometry on DLD1 cells, IgG, MFI
# [9] = target: T2, human CD47 expressed on cells (CD47 …); assay: flow cytometry on DLD1 cells, IgG, frequency
# CHO/mCD47-GFP = target: T1, CHO/mCD47-GFP; assay: flow cytometry on CHO cells expressing mouse CD47-GFP, binding percentage
# [10] = target: T4, CD47 protein (construct not stated; SPR antigen, CD47 coated ELISA plates) (Homo sapiens (Human), UniProt Q08722 19-139, limits assumed); assay: ELISA on CD47, OD450 against Log[M]; column headed KD beside the legend
# T4 construct: also called the antigen
# [11] = target: T2, human CD47 expressed on cells (CD47 …); assay: IC50 as grade, SIRPα blocking on Raji cells; legend +++: <1 nM
# [12] = target: T2, human CD47 expressed on cells (CD47 …); assay: flow cytometry blocking assay on Raji cells, SIRPα is the blocked ligand, MFI
# [13] = target: T2, human CD47 expressed on cells (CD47 …); assay: flow cytometry SIRP-alpha blocking assay on Raji cells, MFI
binder,measurement,setting,value
B1,EC50 (read off the curve),[1],~1 nM
B2,EC50 (read off the curve),[2],~0.1 nM
same,EC50 (read off the curve),[3],~0.1 nM
same,EC50 (read off the curve),[4],~0.2 nM
same,EC50 (read off the curve),[5],~0.2 nM
B3,EC50 (read off the curve),[6],~2 nM
same,EC50 (read off the curve),[7],~4 nM
same,EC50 (read off the curve),CD47 on monkey RBC,~0.2 µg/mL
B4,EC50 (read off the curve),[6],~2 nM
same,EC50 (read off the curve),[7],~4 nM
same,EC50 (read off the curve),CD47 on monkey RBC,~0.1 µg/mL
B5,EC50 (read off the curve),[8],~4 nM
same,EC50 (read off the curve),[9],~0.4 nM
B6,binding result,CHO/mCD47-GFP,no binding (tested: about 0.4 ug/ml)
B7,Kd,[10],1.3 nM
B8,IC50,[11],< 1 nM
same,IC50 (read off the curve),[12],~0.4 nM
B9,EC50 (read off the curve),[3],~0.6 nM
same,IC50,[11],< 1 nM
same,EC50 (read off the curve),[4],~1 nM
same,EC50 (read off the curve),[5],~1 nM
same,IC50 (read off the curve),[12],~0.09 nM
B10,IC50,[11],< 1 nM
same,IC50 (read off the curve),[12],~0.3 nM
B11,EC50 (read off the curve),[6],~2 nM
same,EC50 (read off the curve),[7],~4 nM
B12,EC50 (read off the curve),[6],~2 nM
same,EC50 (read off the curve),[7],~4 nM
B13,IC50 (read off the curve),[13],~0.3 nM
B14,EC50 (read off the curve),[2],~0.6 nM
same,EC50 (read off the curve),[3],~0.6 nM
same,EC50 (read off the curve),[4],~1 nM
same,EC50 (read off the curve),[5],~1 nM
same,IC50 (read off the curve),[13],~0.3 nM
B15,IC50 (read off the curve),[13],~0.3 nM
B16,EC50 (read off the curve),[2],~0.6 nM
same,EC50 (read off the curve),[3],~0.6 nM
same,EC50 (read off the curve),[4],~1 nM
same,EC50 (read off the curve),[5],~1 nM
same,IC50 (read off the curve),[13],~0.3 nM
B17,IC50 (read off the curve),[13],~0.3 nM
